Where two headings read alike, the source gives them in different places.

A short description of series [1]: Plasma total radioactivity pharmacokinetics after single IV [^14C]-peginesatide (LSC). The format is in vivo, male Sprague-Dawley rats. The settings on record: single 5 mg-kg^-1 IV [^14C]-peginesatide, n=3. Here is the method: Total captured radioactivity was subsequently measured via LSC.
The plasma samples were analyzed for total radioactivity using LSC.
Noncompartmental PK parameters for peginesatide and metabolites were generated using WinNonlin ver. 4.0, Pharsight Corporation (Mountain View, CA). The maximum plasma concentration (Cmax) and their times of occurrence (tmax) were obtained directly from the mean plasma concentration vs. time profiles. The areas under the plasma concentration-time curves […] were estimated by the linear trapezoidal rule - by adding all the area portions under the curve from time zero to the time of the last observed plasma concentration (tn). Elimination rate constants (kz) were estimated by fitting a linear regression of log mean concentration against time data in the terminal exponential phase (at least 3 data points). Apparent terminal half-life (t1/2) was calculated as In2/λz. The AUC0-inf was calculated as the sum of AUC0-t and Cobs/λz, where Cobs, was the actual concentration at the time of the last quantifiable concentration. The plasma clearance (CL) for peginesatide was estimated as the ratio of dose/ AUC0-inf. The mean residence time (MRT) was calculated as the ratio of AUMC0-inf/AUC0-inf, where AUMC0-inf was the area under the first moment curve from the time zero to infinity. The volume of distribution at steady state (Vss) was estimated as CL x MRT.

Series [2] in a line: Quantitative whole body autoradiography (QWBA) tissue distribution. The settings on record: for the radiolabel distribution and QWBA studies. In kind it is in vivo, male Sprague-Dawley rats. Here is the method: Tissue distribution of radioactivity was assessed by quantitative whole-body autoradiography (QWBA) in addition to determination of radioactivity tissue levels by LSC. At various time points following the administration of the desired QWBA target dose of 100 uCi/kg [^14C]-peginesatide, equating to a 17mg/kg dose of peginesatide, the rats were anesthetized with isoflurane and blood (−3-4 mL) was collected via cardiac puncture. Anesthetized rats were sacrificed by immersion in a hexane dryicebath. Carcasseswere embedded in 2% carboxymethylceilulose over solid CO2 to ensure the block was retained frozen, and then stored at −20°C until sectioning. In addition, ^14C radioactivity standards were embedded with each carcass to provide a context for quantification and for quality control purposes.
Samples were sectioned onto adhesive tape (Nakagawa NA-70 MAG, Japan) at five levels of interest in the sagittal plane, with all major tissues, organs, and biological fluids represented. […] To quantitate radioactivity in tissues, a calibration standard curve was constructed using American Radiolabeled Chemicals, Inc ARC 146 standards. The autoradiographic image data for the calibration standards and specified tissues, organs, and fluids were quantified using Imaging Research Inc. AIS software. […]

On the set-up of series [3]: species or system male Sprague-Dawley rats. The conditions noted are these: rat, in vivo, iv. Here is the method:
The metabolite profiling in the biological samples from rats dosed with [^14C]-peginesatide was performed by high-performance liquid chromatography (HPLC). The radiolabeled materials in the samples of plasma and aqueous homoge-nates of tissues and feces were extracted with five volumes of methanol containing 0.1% of trifluoroacetic acid (TFA), mixed and centrifuged at 1500g at 4°C for l0 min to obtain supernatant. A portion of the supernatant was counted to estimate the extraction recovery of [^14C]-peginesatide and its related compounds in the biological samples. The rest of the supernatant was evaporated to dryness under a nitrogen gas stream. The residue was re-dissolved in a small volume of equal parts mobile phase [MP(A)] and B [MP(B)] for chromatographic analysis. The HPLC system (Simadzu, Kyoto, Japan) consisted of a LC-lOADvp pump, a CTO-lOACvp column oven, an SPD-lOAvp UV detector, and an SCL-lOAvp system controller. […] The flow rate was 0.5mL/min, and the peaks were monitored by a UV absorption detector at 215 run. […] The effluentwas collected into 0.5mL size fractions, followed by counting of the radioactivity (LSC). […]
Noncompartmental PK parameters for peginesatide and metabolites were generated using WinNonlin ver. […] Apparent terminal half-life (t1/2) was calculated as In2/λz. The AUC0-inf was calculated as the sum of AUC0-t and Cobs/λz, where Cobs, was the actual concentration at the time of the last quantifiable concentration. […] The mean residence time (MRT) was calculated as the ratio of AUMC0-inf/AUC0-inf, where AUMC0-inf was the area under the first moment curve from the time zero to infinity. […]
The plasma metabolic profile of [^14C]-peginesatide was determined by the HPLC analysis described above and measurement of radioactivity using LSC. […] The moieties detected were designated as peginesatide or mono-PEG (peginesatide with one PEG chain), with the remaining radioactivity designated as “Other” The classification of Other is anticipated to encompass smaller PEGylated-peptide and peptide/ amino acid components. […]

The conditions of series [4]: cited from earlier work. Here is the method:
Erythropoietin is deficient in patients with CKD-associated anemia. Administration of ESAs, such as peginesatide, leads to activation of the appropriate signaling at the EPO receptor ([Fan et al. 2006]). […] The principal findings in the single and repeat dose toxicity studies are primarily attributed to the pharmacological effects of peginesatide and secondary sequelae when an ESA is administered to an initially nor ...

By Tmax is commonly meant the time from dosing to the highest level. Consider Peginesatide, for which, in series [1], the “Cmax, total radioactivity” value is 150 ug equiv·mL^−1. The “bone marrow to bone ratios” value in series [2] is reported as 11-25. In addition, in series [3], the Tmax was determined as 0.25 h, the t½α turned out to be 29.1 h and the t½β came out at 110 h. The “reticulocytes and hemoglobin levels” value in series [4] (single IV administration in humans, ref Stead et al. 2006) was “dose-dependent increases in reticulocytes and hemoglobin levels”. In addition, the “reticulocytes and hemoglobin levels” value in series [4] (single IV administration in rats, ref Fan et al. 2006) was “dose-dependent increases in reticulocytes and hemoglobin levels”.

The values are drawn from PMC3409459, “Absorption, distribution, metabolism and excretion of peginesatide, a novel erythropoiesis-stimulating agent, in rats” (Xenobiotica; the Fate of Foreign Compounds in Biological …, 2011).
